Measured values taken from IntAct's records for PubMed 16280327.

B1: B-cell lymphoma/leukemia 10 (Homo sapiens), O95999 (parent)
chain: MEPTAPSLTEEDLTEVKKDALENLRVYLCEKIIAERHFDHLRAKKILSREDTEEISCRTSSRKRAGKLLDYLQENPKGLDTLVESIRREKTQNFLIQKITDEVLKLRNIKLEHLKGLKCSSCEPFPDGATNNLSRSNSDESNFSEKLRASTVMYHPEGESSTTPFFSTNSSLNLPVLEVGRTENTIFSSTTLPRPGDPGAPPLPPDLQLEEEGTCANSSEMFLPLRSRTVSRQ
partner: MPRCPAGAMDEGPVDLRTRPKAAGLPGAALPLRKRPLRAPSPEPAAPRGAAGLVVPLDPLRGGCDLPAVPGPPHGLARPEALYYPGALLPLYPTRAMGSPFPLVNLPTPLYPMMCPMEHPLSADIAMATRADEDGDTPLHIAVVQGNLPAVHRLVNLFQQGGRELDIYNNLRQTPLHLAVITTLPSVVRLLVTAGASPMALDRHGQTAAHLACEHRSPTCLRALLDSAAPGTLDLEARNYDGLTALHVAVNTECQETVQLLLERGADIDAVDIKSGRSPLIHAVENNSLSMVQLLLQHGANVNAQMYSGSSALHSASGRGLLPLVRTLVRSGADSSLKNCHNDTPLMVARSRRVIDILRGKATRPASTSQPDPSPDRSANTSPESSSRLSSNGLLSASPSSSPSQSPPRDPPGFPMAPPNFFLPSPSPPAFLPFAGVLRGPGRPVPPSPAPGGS

Variants of: B1
Conditions: with bcl3_human BCL3, P20749

Row | Variant | effect of a mutation on the interaction
1 | MEPTAPSLTEEDLTEVKKDALENLRVYLCEKIIAERHFDHLRAKKILSREDTEEISCRTSSRKRAGKLLDYLQENPKGLDTLVESIRREKTQNFLIQKITDEVLKLRNIKLEHLKGLKCSSCEPFPDGATNNLSRSNSDESNFSEKLRASTVMYHPEGESSTTPFFSTNSSLNLPVLEVGRTENTIFSSTTLPRPGDPGAPPLPPDLQLEEEGTCANSSEMFLPLRSRTVDRQ [S231D] | increasing interaction
2 | MEPTAPSLTEEDLTEVKKDALENLRVYLCEKIIAERHFDHLRAKKILSREDTEEISCRTSSRKRAGKLLDYLQENPKGLDTLVESIRREKTQNFLIQKITDEVLKLRNIKLEHLKGLKCSSCEPFPDGATNNLSRSNSDESNFSEKLRASTVMYHPEGESSTTPFFSTNSSLNLPVLEVGRTENTIFSSTTLPRPGDPGAPPLPPDLQLEEEGTCANDSEMFLPLRSRTVSRQ [S218D] | increasing interaction
